Counter-ions that a name gives are not always drawn.
B1: FGF-4: recombinant fibroblast growth factor-4 (protein, UniProt P08620 31-206, looked up)
Fibroblast growth factor 4: APTAPNGTLEAELERRWESLVALSLARLPVAAQPKEAAVQSGAGDYLLGIKRLRRLYCNVGIGFHLQALPDGRIGGAHADTRDSLLELSPVERGVVSIFGVASRFFVAMSSKGKLYGSPFFTDECTFKEILLPNNYNAYESYKYPGMFIALSKNGKTKKGNRVSPTMKVTHFLPRL

What was measured:
E. coli = experiment: Antimicrobial activity of AB released from AB-FG (zone of inhibition); assay type: cell-based; settings: eluates on agar plates, 18 hours at 37° C.
Procedure: FIG. 27. […] Then the diameter of the zone of inhibition was measured.
In order to measure the concentration and biological activity of the TFT which had been released from the TFT-FG disks, the eluted TFT was thawed and was analyzed spectrophotometrically at 320 nm and/or biologically by the inhibition of E. coli grown on agar plates.
The antimicrobial activity of the AB released from the AB-FG was estimated by measuring the diameters of the zones of inhibition generated by the eluate from the 6 mm diameter disks form the daily collected PBS or saliva surrounding the AB-FG. The eluates from unsupplemented FG served as controls. AB solutions of knwon concentration were used as standards. […] To make the culture plates, 100 μl of the bacterial cell suspension, containing approximately 10^8 cells/ml, was mixed with 3 ml of top agar at 50° C. and immediately poured onto the plate hard, bottom agar to make a uniform layer of cells. The plates were incubated at 37° C. for 18 hours.

[1] = test system: human dermal fibroblasts (HDFs); experiment: Cell chemotaxis assay (modified Boyden's chamber), human dermal fibroblasts; assay type: cell-based
Excerpt: (§1) NIH/3T3 fibroblasts at passage 126 were purchased from the American Type Culture Collection, Rockville, Md. Cultures from passages 129-133 were used in the chemotaxis assays. Cultures were propagated in DMEM supplemented with 10%. Calf serum and approximately 1% antibiotic antimycotic solution. Human dermal fibroblasts (HDFs) were purchased from Clonetics, Inc. (San Diego, Calif.) at passage 2. Cultures from passages 3-5 were used in the chemotaxis assays. Cultures were cultivated in DMEM supplemented with 20% FBS (Hyclone Laboratories, Inc., Logan, Utah) and approximately 1% antibiotic antimycotic solution (Gibco, Grand Island, N.Y.).
(§2) The procedure used to determine cellular chemotaxis was a combination of two known methodologies. A modification of Boyden's chamber was used as follows: Millicell-PCF (Millipore, Inc., Bedford, Mass.) (12.0 μm) 12.0 mm diameter inserts were placed in individual wells of 24 well plates to create the upper and lower chemotaxis chambers. Chemotaxis results were arrived at by performing checkerboard analysis for every combination of cells and growth factors. Concentrations ranging from 0.1, 1, 10, 100 ng/ml with/without added heparin (10 U/ml) were used for FGF-1, FGF-2 (no heparin) and FGF-4 with all the cell types mentioned in the materials section. Briefly, cultures were trypsanized and placed in DMEM+0.1% Bovine Serum Albumin (BSA) (Sigma Chemical Co., St. Louis, Mo.) for approximately one hour at 37° C. in a 5% CO2 humidified chamber. Tow to 2.5×10^5 cells in 50 μl were added per insert to the upper chamber of the setup of the 24 well plates. Treatments were added as mentioned above. The assay was kept at 37° C. in a 5% CO2 humidified chamber for 4 hours. All combinations tested were performed in triplicate. At the end of 4 hours, the plates were removed from the incubator and the filters were stained following the protocol for staining included with the Millicell-PCT inserts. Briefly, the fluid surrounding the inside and outside of the Millicell-PCF inserts were removed. Three percent glutaraldehyde (Sigma Chemical Co., St. Louis, Mo.) was added to the outside and inside of the inserts for approximately 20 minutes. Following removal of the 3.0% glutaraldehyde, 0.5% Triton X-100 (E.M. Science, Cherry Hill, N.J.) was added for 5-7 minutes. On removal of the 0.5% Triton X-100, Fisher's Hematoxylin Solution Gill's Formulation (Fisher Scientific, Newark, Del.) No.1 was added for about 10 minutes. This solution was washed off in running distilled water for about 5 minutes. Using a cotton swab the upper side of the filter was swabbed to remove cells which had not migrated. Filters, were mounted lower side facing up on slides in Crystal Mount™ (Biomedia, Inc., Foster City, Calif.) solution and 10 random field were counted per slide both visually at 400× and at 200×using an Image Analyzing System to automate the enumeration of the cells on the underside of the filters.
(§3) As required, checkerboard analysis was carried out to determine random migration, and positive and negative chemotaxis. Growth factors were added to the upper and/or lower chambers to observe whether cells migrated towards the GF alone (chemotaxis), whether migration was random irrespective of whether the growth factor was added to the upper or lower well (chemokinesis) or whether cell migration was against the chemotactic gradient (negative chemotaxis).

[2] = test system: human dermal fibroblasts (HDFs); experiment: Cell migration assay to FGF released from FG; assay type: cell-based; settings: 24 hours
Procedure: FIG. 41. Graph showing the dose-response relationship of the chemotactic response of HDFs to FGF-4 in solution and in FG. FGF-4 was incorporated into FG and placed in the bottom well of chemotaxis chambers. The amount of FGF in the FG was sufficient to result in the indicated concentrations when evenly distributed throughout the FG and medium in the lower chamber. Negative controls included medium alone and FG without FGF. Medium containing FGF-4 at a concentration of […] in the lower chamber was utilized as a positive control.
Chemotaxis chambers and cells were utilized as described above. Fifty μl of 8 mg/ml Topical Fibrinogen Complex (TFC, American Red Cross, Rockville, Md.) was added to the bottom of 24 well plates. Forty μl of test growth factor+/−heparin at a final concentration of 10 U/ml (FGF-1, FGF-4 with heparin, FGF-2 alone) was added to the TFC and thoroughly mixed. Ten μl of bovine Thrombin (Armour Pharmaceutical Company, Kankakee, Ill.) was added and mixed thoroughly. The components were allowed to gel at room temperature for approximately 30 minutes. Total volume in the lower and upper chambers was made up to 0.5 ml each with DMEM+0.1% BSA. The concentration of the FGF's added to the TFC was adjusted to produce the desired overall concentration as determined by: [formula] The assay was performed at 37° C. in a5% CO2 humidified chamber for approximately 24 hours. […]

NIH 3T3 fibroblasts = experiment: Cell chemotaxis assay (modified Boyden's chamber), NIH 3T3 fibroblasts; assay type: cell-based; settings: for concentration of maximum stimulation of migration: FGF-1 in the presence of 10 U/ml heparin
Excerpt: as §1
as §2, with “Concentrations ranging from 0.1, 1, 10, 100 ng/ml with/without added heparin (10 U/ml) were used for FGF-1, FGF-2 (no heparin) and FGF-4 with all the cell types mentioned in the materials section.” left out
as §3

[3] = Washout of 125I-HBGF-1 from FG-treated PTFE grafts in rabbit aortas; assay type: in vivo, New Zealand white rabbits
Procedure: In general, the modified F was sterilely prepared by adding approximately 1 ng/cm^2 area of the inner and outer graft surfaces of human recombinant […], 20 μg/cm^2 porcine intestinal mucosal heparin, and 2.86 mg/cm^2 fibrinogen to 2.86×10^−2 U/cm^2 reconstituted, commercially available, human thrombin (1000 U/ml) to induce polymerization.
The […] was specifically prepared as follows. Fibrinogen was reconstituted by adding 500 mg of fibrinogen into 25 ml of PBS to produce a fibrinogen concentration of 20 mg/ml of PBS. Three ml of this solution which contained 60 mg fibrinogen were placed into […] Eppendorf plastic tubes and maintained at −70° C. Each of these aliquots was used individually.
The thrombin was reconstituted by diluting a commercially available preparation thereof (Armour Pharmaceutical Co., Kankakee, Ill.) at a concentration of 1000 U/ml by a factor of 1:10 in sterile solution to produce a concentration of 100 U/ml. This thrombin solution was again diluted 1:10 to produce a solution of 10 U/ml.
The bovine heparin (Upjohn, Kalamazoo, Mich.) was reconstituted by diluting the preparation at a concentration of 1000 U/ml by a factor of 1:1000 using normal saline.
One and 48/100 (1.48) ml of the reconstituted fibrinogen, 63 μL of the reconstituted heparin, plus 15.66 μL of ^125I-HBGF-1 were mixed in a glass scintillation tube. This mixture was then aspirated into a 3 ml plastic syringe. Five ml of the reconstituted thrombin was placed into a glass scintillation tube.
One end of the expanded PTFE graft was placed over a plastic-3 way stopcock nozzle and was secured there with a 2-0 silk tie. The PTFE was then encircled with a 3×3 cm square of Parafilm™ which was then crimped there with a straight hemostat to establish a watertight seal. A second 2-0 silk tie was positioned over the parafilm adjacent to the stopcock to form another seal. A straight hemostat was then used to clamp the distal 2 mm of the PTFE/parafilm to seal this end.
Equal volumes of fibrinogen and thrombin solution prepared as described above were mixed and allowed to react for approximately 30 seconds which is when polymerization occurs. The thrombin-polymerized fibrin is then opaque. (This time factor is approximate and varies from one thrombin lot to another. The appropriate length of time to polymerization can be determined by viewing the opacity of the mixture). The fibrin/thrombin mixture was aspirated into a one cc syringe. (NOTE: The volume of this graft was 0.42 ml. For a graft with a larger volume one needs to use a larger syringe). […] The treated graft was then ready for implantation. […]

Row | Molecule | antimicrobial activity of released AB (E. coli) | checkerboard analysis [1] | concentration of maximum stimulation of migration [1] [mg/mL] | maximal migratory response over negative control [1] [fold] | checkerboard analysis (NIH 3T3 fibroblasts) | concentration of maximum stimulation of migration (NIH 3T3 fibroblasts) [ng/mL] | other results
1 | Cc1ncc([N+](=O)[O-])n1CCO [MET, Metronidazole] | parallels the profiles determined spectrophotometrically |  |  |  |  |  | 
2 | O=C(O)c1cn(C2CC2)c2cc(N3CCNCC3)c(F)cc2c1=O [CIP, Ciprofloxacin HCl] | parallels the profiles determined spectrophotometrically |  |  |  |  |  | 
3 | FGF-2: recombinant fibroblast growth factor-2 |  | chemotactic | 10 | 12 | chemotactic | 1 | concentration in FG eliciting peak chemotactic response [2]: 0.01 mg/mL
4 | ^125I-HBGF-1: radiolabelled human recombinant HBGF-1 in FG applied to PTFE grafts |  |  |  |  |  |  | remaining 125I-HBGF-1, percentage of the zero time value ([3]; after 1 week): 13.44%±6.9%; washout of 125I-HBGF-1 ([3]; after 1 hr): −0.03 %/min; remaining 125I-HBGF-1, percentage of the zero time value ([3]; after 30 days): 3.8%±1.1%; washout of 125I-HBGF-1 ([3]; between 5 and 60 minutes): −24.1 %/min
5 | B1 |  | chemotactic | 10 | 10 | chemotactic | 10 | incorporated and total concentration in FG eliciting maximal migratory response [2]: 1 ng/mL
